The text below walks through data of IntAct's records for PubMed 18337722.

First the molecules themselves.
B1: Ataxin-1 (Homo sapiens), P54253 (parent)
chain: MKSNQERSNECLPPKKREIPATSRSSEEKAPTLPSDNHRVEGTAWLPGNPGGRGHGGGRHGPAGTSVELGLQQGIGLHKALSTGLDYSPPSAPRSVPVATTLPAAYATPQPGTPVSPVQYAHLPHTFQFIGSSQYSGTYASFIPSQLIPPTANPVTSAVASAAGATTPSQRSQLEAYSTLLANMGSLSQTPGHKAEQQQQQQQQQQQQHQHQQQQQQQQQQQQQQHLSRAPGLITPGSPPPAQQNQYVHISSSPQNTGRTASPPAIPVHLHPHQTMIPHTLTLGPPSQVVMQYADSGSHFVPREATKKAESSRLQQAIQAKEVLNGEMEKSRRYGAPSSADLGLGKAGGKSVPHPYESRHVVVHPSPSDYSSRDPSGVRASVMVLPNSNTPAADLEVQQATHREASPSTLNDKSGLHLGKPGHRSYALSPHTVIQTTHSASEPLPVGLPATAFYAGTQPPVIGYLSGQQQAITYAGSLPQHLVIPGTQPLLIPVGSTDMEASGAAPAIVTSSPQFAAVPHTFVTTALPKSENFNPEALVTQAAYPAMVQAQIHLPVVQSVASPAAAPPTLPPYFMKGSIIQLANGELKKVEDLKTEDFIQSAEISNDLKIDSSTVERIEDSHSPGVAVIQFAVGEHRAQVSVEVLVEYPFFVFGQGWSSCCPERTSQLFDLPCSKLSVGDVCISLTLKNLKNGSVKKGQPVDPASVLLKHSKADGLAGSRHRYAEQENGINQGSAQMLSENGELKFPEKMGLPAAPFLTKIEPSKPAATRKRRWSAPESRKLEKSEDEPPLTLPKPSLIPQEVKICIEGRSNVGK
partner: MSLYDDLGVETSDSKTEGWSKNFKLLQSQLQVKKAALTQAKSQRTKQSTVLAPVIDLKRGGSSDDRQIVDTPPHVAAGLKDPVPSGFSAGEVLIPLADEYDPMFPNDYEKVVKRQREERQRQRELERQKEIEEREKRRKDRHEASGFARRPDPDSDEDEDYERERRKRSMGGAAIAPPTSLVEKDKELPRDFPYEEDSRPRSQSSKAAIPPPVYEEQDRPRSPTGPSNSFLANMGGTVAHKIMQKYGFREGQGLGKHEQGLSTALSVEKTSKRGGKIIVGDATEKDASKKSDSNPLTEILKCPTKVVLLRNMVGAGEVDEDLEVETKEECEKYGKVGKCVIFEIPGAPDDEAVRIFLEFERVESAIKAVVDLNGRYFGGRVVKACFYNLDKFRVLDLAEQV

Variants of B1 are the subject of this assay. Conditions: with spf45_human RBM17, Q96I25.
S775A: the “effect of a mutation on the interaction” value is recorded as “disrupting interaction strength”.
